Measured values from article PMC6741143, “A putative merR family transcription factor Slr0701 regulates mercury inducible expression of MerA in the cyanobacterium Synechocystis sp. PCC6803” (MicrobiologyOpen, 2019).

T1: Slr0701 (6x-His, MerR family regulator) (Synechocystis sp. PCC6803, UniProt Q55963 1-137)
T1 sequence: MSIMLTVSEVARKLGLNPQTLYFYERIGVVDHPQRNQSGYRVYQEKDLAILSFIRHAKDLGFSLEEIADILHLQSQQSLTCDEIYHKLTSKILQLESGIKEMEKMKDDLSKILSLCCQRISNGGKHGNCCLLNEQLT

B1: 6x-His-Slr0701 protein (putative MerR family transcriptional regulator Slr0701) (natural protein, Synechocystis sp. PCC6803, UniProt Q55963 1-137, looked up)
chain: MSIMLTVSEVARKLGLNPQTLYFYERIGVVDHPQRNQSGYRVYQEKDLAILSFIRHAKDLGFSLEEIADILHLQSQQSLTCDEIYHKLTSKILQLESGIKEMEKMKDDLSKILSLCCQRISNGGKHGNCCLLNEQLT
notes: Slr0701, putative MerR family transcriptional regulator of Synechocystis sp; PCC6803; the slr0701 ORF amplified with primers from the start codon (GTG) to the stop codon and cloned into pET-28a(+) at NheI and EcoRI; not shown: His6, C-terminal, kept
B2: Pslr0701 50-bp oligonucleotide duplex (dsDNA)
DNA 1: TACTACAATATATTCCCTATACTTAGGTATAAGGTTGTAGGTTGATATAG
DNA 2: CTATATCAACCTACAACCTTATACCTAAGTATAGGGAATATATTGTAGTA

Legend:
[1] = target: the molecule itself; experiment: SDS-PAGE without 2-mercaptoethanol; purified 6x-His-Slr0701 on 15% SDS-PAGE under semi-denaturing condition (without 2-mercaptoethanol), compared with a sample with 2-mercaptoethanol; monomer to dimer
[2] = target: T1, Slr0701 (6x-His, MerR family regulator); experiment: SPR; 62 uM HgCl2; EMSA: 20 ul, 80 ng DNA, 0.5 or 1 ug protein, binding buffer not specified, 30 min at 25 C, 6% native PAGE in 0.5x TBE at 4 C, SYBR Green; SPR: Biacore T200, SA; conditions: protein: recombinant; tags: 6xHis (text says C-terminal; pET-28a NheI/EcoRI clone, also written 6x-His-Slr0701); chain copies: 2; label: 5' biotin on strand 1; blunt

| Binder | stoichiometry N [1] | binding signal [2] |
| --- | --- | --- |
| B1 | 2 |  |
| B2 |  | ~1000 fold higher affinity with HgCl2 than without |
